Results published in patent US20140287471A1, “VARIANT CBH I POLYPEPTIDES WITH REDUCED PRODUCT INHIBITION” (BP CORPORATION NORTN AMERICA INC., priority 2011, published 2014).
Read-outs that look alike come from different tables or passages of the source.

Assay: 4-MUL cellobiose tolerance/inhibition assay, dose-response IC50 (Example 2)
Assay type: biochemical
Description: CBH I activity on was measured using the 4-MUL assay using gluconolactone to inhibit any BG activity. The fluorogenic 4-MUL substrate (SIGMA) was prepared at 100 mM concentration in DMSO. Assays were run in black 96-well-flat-bottomed plates (Costar) and 4-MU fluorescence was read on a BioTek H4 plate reader (ex/em 365/450 nm). Assay plates were filled with buffer (final concentrations of 100 mM MES, pH 6, 25 mM gluconolactone, with or without cellobiose; cellobiose concentrations are listed with appropriate data sets), to which enzyme mixture was added (10-30 μl, 5 μg/mL final) and then assays were initiated by addition of 4-MUL (0.5 mM final concentration in 100 μl total volume). Enzyme mixtures were either CBH I variants from harvested supernatants or standards. Standards included: a negative control, consisting of harvested supernatant from the CBH I knock-out strain; a positive control, consisting of wild-type CBH I from harvested supernatants; and, a commercial CBH I standard (E-CBHI from Megazymes). Activity standards were run by serial dilution of commercial CBH I from 40 to 0.02 μg/mL and 4-MU (SIGMA, prepared at 20 mM in DMSO) (in dilution increments of 2-fold; all dilutions were made using harvested supernatant from the knock-out control). Kinetic rates were monitored over the first 15 mins following 4-MUL addition; initial rates were calculated based on data in the linear range. After 1 hr, a final endpoint read was taken, both before and after reaction quenching (100 μL of 200 mM Sodium Carbonate, pH 10.0). Activity was calculated for kinetic and endpoint reads; background resulting from the CBH I knock-out supernatant remained negligible. 4MU standard curves and HPLC quantification values were used to calculate specific activity.
Tolerance/inhibition values represent activity ratios and/or percent activity remaining/percent activity decreased in the presence versus the absence of cellobiose. Tolerant variants show less inhibition in the presence of cellobiose as compared to wild type, where an activity ratio of 1 (with vs. without a given concentration of cellobiose) is equivalent to 0% inhibition by cellobiose, or 100% tolerance. The effect of cellobiose on CBH I variant performance was monitored by dose-response in the 4MUL assay. Dose-response curves were generated by assaying variant activity in the presence of 6-8 different cellobiose concentrations ranging up to 100 mM cellobiose. CBH I samples were diluted to 5 μg/mL final concentration or were used directly in the case of protein quantification levels below 5 μg/mL. Half maximal inhibitory concentration (IC50) values were determined by plotting 4MUL activity versus cellobiose concentration and fitting with a four parameter dose-response fitting algorithm, with zero activity (or 100% inhibition) constrained to background activity (as established by CBH I knockout values) and with automatic outlier elimination (on GraphPad Prism 5).
Harvested supernatants from active variant isolates were evaluated for cellobiose tolerance at 1 mM cellobiose in the 4-MUL activity assay. Table 8 lists the tolerance of variants at 1 mM. […] Additional cellobiose concentrations at 0.25, 5, 10, 50, and 100 mM were tested leading to full dose-response curves for which half maximal inhibitory concentration (IC50) values were generated (Table 8). The IC50 values support that the variant library has decreased product inhibition, or increased tolerance to cellobiose, when compared to the wild-type enzyme (WT IC50=0.03 mM; see first entry, Table 8).
In one example, the cellobiose tolerance of the library was explored in more detail by generating dose-response curves and determining half maximal inhibitory concentration (IC50) values, the point at which the enzyme is 50% inhibited.

[1] = Secondary screening, CBH I levels normalized to 5 μg/mL, cellobiose range 0.00085-100 mM, read-out: IC50
[2] = secondary screening, CBH I levels normalized to 5 μg/mL, cellobiose range 0.0001-100 mM, read-out: Average IC50

| Molecule | IC50 [1] | IC50 [2] | IC50 (Secondary screening, 30 μl harvested supernatant (CBH I levels lower than 5 μg/mL), cellobiose range 0.00085-100 mM, read-out: IC50) |
| --- | --- | --- | --- |
| R268R (protein, UniProt P62694 18-513, looked up) Exoglucanase 1: QSACTLQSETHPPLTWQKCSSGGTCTQQTGSVVIDANWRWTHATNSSTNCYDGNTWSSTLCPDNETCAKNCCLDGAAYASTYGVTTSGNSLSIGFVTQSAQKNVGARLYLMASDTTYQEFTLLGNEFSFDVDVSQLPCGLNGALYFVSMDADGGVSKYPTNTAGAKYGTGYCDSQCPRDLKFINGQANVEGWEPSSNNANTGIGGHGSCCSEMDIWEANSISEALTPHPCTTVGQEICEGDGCGGTYSDNRYGGTCDPDGCDWNPYRLGNTSFYGPGSSFTLDTTKKLTVVTQFETSGAINRYYVQNGVTFQQPNAELGSYSGNELNDDYCTAEEAEFGGSSFSDKGGLTQFKKATSGGMVLVMSLWDDYYANMLWLDSTYPTNETSSTPGAVRGSCSTSSGVPAQVESQSPNAKVTFSNIKFGPIGSTGNPSGGNPPGGNRGTTTTRRPATTTGSSPGPTQSHYGQCGGIGYSGPTVCASGTTCQVLNPYYSQCL | 52 µM | 46 µM | – |
| R268T (protein, UniProt P62694 18-513, looked up, variant R268T) Exoglucanase 1: QSACTLQSETHPPLTWQKCSSGGTCTQQTGSVVIDANWRWTHATNSSTNCYDGNTWSSTLCPDNETCAKNCCLDGAAYASTYGVTTSGNSLSIGFVTQSAQKNVGARLYLMASDTTYQEFTLLGNEFSFDVDVSQLPCGLNGALYFVSMDADGGVSKYPTNTAGAKYGTGYCDSQCPRDLKFINGQANVEGWEPSSNNANTGIGGHGSCCSEMDIWEANSISEALTPHPCTTVGQEICEGDGCGGTYSDNTYGGTCDPDGCDWNPYRLGNTSFYGPGSSFTLDTTKKLTVVTQFETSGAINRYYVQNGVTFQQPNAELGSYSGNELNDDYCTAEEAEFGGSSFSDKGGLTQFKKATSGGMVLVMSLWDDYYANMLWLDSTYPTNETSSTPGAVRGSCSTSSGVPAQVESQSPNAKVTFSNIKFGPIGSTGNPSGGNPPGGNRGTTTTRRPATTTGSSPGPTQSHYGQCGGIGYSGPTVCASGTTCQVLNPYYSQCL | 349 µM | 360 µM | – |
| R411N (protein, UniProt P62694 18-513, looked up, variant R411N) Exoglucanase 1: QSACTLQSETHPPLTWQKCSSGGTCTQQTGSVVIDANWRWTHATNSSTNCYDGNTWSSTLCPDNETCAKNCCLDGAAYASTYGVTTSGNSLSIGFVTQSAQKNVGARLYLMASDTTYQEFTLLGNEFSFDVDVSQLPCGLNGALYFVSMDADGGVSKYPTNTAGAKYGTGYCDSQCPRDLKFINGQANVEGWEPSSNNANTGIGGHGSCCSEMDIWEANSISEALTPHPCTTVGQEICEGDGCGGTYSDNRYGGTCDPDGCDWNPYRLGNTSFYGPGSSFTLDTTKKLTVVTQFETSGAINRYYVQNGVTFQQPNAELGSYSGNELNDDYCTAEEAEFGGSSFSDKGGLTQFKKATSGGMVLVMSLWDDYYANMLWLDSTYPTNETSSTPGAVNGSCSTSSGVPAQVESQSPNAKVTFSNIKFGPIGSTGNPSGGNPPGGNRGTTTTRRPATTTGSSPGPTQSHYGQCGGIGYSGPTVCASGTTCQVLNPYYSQCL | – | 6720 µM | 7900 µM |
| R268H (protein, UniProt P62694 18-513, looked up, variant R268H) Exoglucanase 1: QSACTLQSETHPPLTWQKCSSGGTCTQQTGSVVIDANWRWTHATNSSTNCYDGNTWSSTLCPDNETCAKNCCLDGAAYASTYGVTTSGNSLSIGFVTQSAQKNVGARLYLMASDTTYQEFTLLGNEFSFDVDVSQLPCGLNGALYFVSMDADGGVSKYPTNTAGAKYGTGYCDSQCPRDLKFINGQANVEGWEPSSNNANTGIGGHGSCCSEMDIWEANSISEALTPHPCTTVGQEICEGDGCGGTYSDNHYGGTCDPDGCDWNPYRLGNTSFYGPGSSFTLDTTKKLTVVTQFETSGAINRYYVQNGVTFQQPNAELGSYSGNELNDDYCTAEEAEFGGSSFSDKGGLTQFKKATSGGMVLVMSLWDDYYANMLWLDSTYPTNETSSTPGAVRGSCSTSSGVPAQVESQSPNAKVTFSNIKFGPIGSTGNPSGGNPPGGNRGTTTTRRPATTTGSSPGPTQSHYGQCGGIGYSGPTVCASGTTCQVLNPYYSQCL | 283 µM | 209 µM | – |
| R268C (protein, UniProt P62694 18-513, looked up, variant R268C) Exoglucanase 1: QSACTLQSETHPPLTWQKCSSGGTCTQQTGSVVIDANWRWTHATNSSTNCYDGNTWSSTLCPDNETCAKNCCLDGAAYASTYGVTTSGNSLSIGFVTQSAQKNVGARLYLMASDTTYQEFTLLGNEFSFDVDVSQLPCGLNGALYFVSMDADGGVSKYPTNTAGAKYGTGYCDSQCPRDLKFINGQANVEGWEPSSNNANTGIGGHGSCCSEMDIWEANSISEALTPHPCTTVGQEICEGDGCGGTYSDNCYGGTCDPDGCDWNPYRLGNTSFYGPGSSFTLDTTKKLTVVTQFETSGAINRYYVQNGVTFQQPNAELGSYSGNELNDDYCTAEEAEFGGSSFSDKGGLTQFKKATSGGMVLVMSLWDDYYANMLWLDSTYPTNETSSTPGAVRGSCSTSSGVPAQVESQSPNAKVTFSNIKFGPIGSTGNPSGGNPPGGNRGTTTTRRPATTTGSSPGPTQSHYGQCGGIGYSGPTVCASGTTCQVLNPYYSQCL | 351 µM | 335 µM | – |
| R411V (protein, UniProt P62694 18-513, looked up, variant R411V) Exoglucanase 1: QSACTLQSETHPPLTWQKCSSGGTCTQQTGSVVIDANWRWTHATNSSTNCYDGNTWSSTLCPDNETCAKNCCLDGAAYASTYGVTTSGNSLSIGFVTQSAQKNVGARLYLMASDTTYQEFTLLGNEFSFDVDVSQLPCGLNGALYFVSMDADGGVSKYPTNTAGAKYGTGYCDSQCPRDLKFINGQANVEGWEPSSNNANTGIGGHGSCCSEMDIWEANSISEALTPHPCTTVGQEICEGDGCGGTYSDNRYGGTCDPDGCDWNPYRLGNTSFYGPGSSFTLDTTKKLTVVTQFETSGAINRYYVQNGVTFQQPNAELGSYSGNELNDDYCTAEEAEFGGSSFSDKGGLTQFKKATSGGMVLVMSLWDDYYANMLWLDSTYPTNETSSTPGAVVGSCSTSSGVPAQVESQSPNAKVTFSNIKFGPIGSTGNPSGGNPPGGNRGTTTTRRPATTTGSSPGPTQSHYGQCGGIGYSGPTVCASGTTCQVLNPYYSQCL | 2900 µM | 3190 µM | – |
| R411C (protein, UniProt P62694 18-513, looked up, variant R411C) Exoglucanase 1: QSACTLQSETHPPLTWQKCSSGGTCTQQTGSVVIDANWRWTHATNSSTNCYDGNTWSSTLCPDNETCAKNCCLDGAAYASTYGVTTSGNSLSIGFVTQSAQKNVGARLYLMASDTTYQEFTLLGNEFSFDVDVSQLPCGLNGALYFVSMDADGGVSKYPTNTAGAKYGTGYCDSQCPRDLKFINGQANVEGWEPSSNNANTGIGGHGSCCSEMDIWEANSISEALTPHPCTTVGQEICEGDGCGGTYSDNRYGGTCDPDGCDWNPYRLGNTSFYGPGSSFTLDTTKKLTVVTQFETSGAINRYYVQNGVTFQQPNAELGSYSGNELNDDYCTAEEAEFGGSSFSDKGGLTQFKKATSGGMVLVMSLWDDYYANMLWLDSTYPTNETSSTPGAVCGSCSTSSGVPAQVESQSPNAKVTFSNIKFGPIGSTGNPSGGNPPGGNRGTTTTRRPATTTGSSPGPTQSHYGQCGGIGYSGPTVCASGTTCQVLNPYYSQCL | 1310 µM | 886 µM | – |
| R411F (protein, UniProt P62694 18-513, looked up, variant R411F) Exoglucanase 1: QSACTLQSETHPPLTWQKCSSGGTCTQQTGSVVIDANWRWTHATNSSTNCYDGNTWSSTLCPDNETCAKNCCLDGAAYASTYGVTTSGNSLSIGFVTQSAQKNVGARLYLMASDTTYQEFTLLGNEFSFDVDVSQLPCGLNGALYFVSMDADGGVSKYPTNTAGAKYGTGYCDSQCPRDLKFINGQANVEGWEPSSNNANTGIGGHGSCCSEMDIWEANSISEALTPHPCTTVGQEICEGDGCGGTYSDNRYGGTCDPDGCDWNPYRLGNTSFYGPGSSFTLDTTKKLTVVTQFETSGAINRYYVQNGVTFQQPNAELGSYSGNELNDDYCTAEEAEFGGSSFSDKGGLTQFKKATSGGMVLVMSLWDDYYANMLWLDSTYPTNETSSTPGAVFGSCSTSSGVPAQVESQSPNAKVTFSNIKFGPIGSTGNPSGGNPPGGNRGTTTTRRPATTTGSSPGPTQSHYGQCGGIGYSGPTVCASGTTCQVLNPYYSQCL | 7580 µM | 5390 µM | – |
